Measurements: US20240425556A1, “MYOPEPTIDES AND METHODS OF USE IN TREATING HEART FAILURE” (University of Cincinnati, priority 2021, published 2024)

B1: recombinant C0-C2 protein (C0, C1 and C2 domains of cardiac myosin binding protein-C) with 6X his-tag (other)
chain: MPEPGKKPVSAFNKKPRSAEVTAGSAAVFEAETERSGVMVRWQRDGSDITANDKYGLAAEGKRHTLTVRDASPDDQGSYAVIAGSSKVKFDLKVTEPAPPEKAESEVAPGAPEEVPAPATELEESVSSPEGSVSVTQDGSAAEHQGAPDDPIGLFLMRPQDGEVTVGGSIVFSARVAGASLLKPPVVKWFKGKWVDLSSKVGQHLQLHDSYDRASKVYLFELHITDAQTTSAGGYRCEVSTKDKFDSCNFNLTVHEAIGSGDLDLRSAFRRTSLAGAGRRTSDSHEDAGTPDFSSLLKKRDSFRRDSKLEAPAEEDVWEILRQAPPSEYERIAFQHGVEACHRPLKRLKGMKQDEKKSTAFQKKLEPAYQVNKGHKIRLTVELADPDAEVKWLKNGQEIQMSGSKYIFESVGAKRTLTISQCSLADDAAYQCVVGGEKCSTELFVKEP
B2: recombinant S2^126 (proximal 126 amino acid sub-fragment 2 region of myosin) with 6X his-tag (other)
chain: PLLKSAETEKEMANMKEEFGRVKDALEKSEARRKELEEKMVSLLQEKNDLQLQVQAEQDNLNDAEERCDQLIKNKIQLEAKVKEMTERLEDEEEMNAELTAKKRKLEDECSELKKDIDDLELTLAK
notes: The position of the his-tag is unknown; also called mouse myosin S2; not shown: 6X his-tag
B3: PLLKSAETEKEMANMKEEFGRVKDALEKSEARRKELEEKMVSLLQEKNDLQLQVQAEQDNLNDAEERCDQLIKNKIQLEAKVKEMTERLEDEEEMNAELTAKKRKLEDECSELKKDIDDLELTLAK (protein, listed as Mus musculus)
chain: B2 chain
modifications: 6X His tag
notes: recombinant proximal 126 amino acid fragment of myosin S2 with 6X his-tag, expressed in E. coli

Tests used:
[1] = biological target: T1, S2^126-C0-C2 binding (Homo sapiens, UniProt Q14896); assay: Solid phase binding assay (SPBA), competition for S2^126-C0-C2 binding; details: for ability to compete for S2^126-C0-C2 binding: SPBA, FIGS. 3A and 3B
T1 construct: 6X His; made in house; host or cells: E. coli BL21
T1 sequence (Q14896 1-451 limits assumed): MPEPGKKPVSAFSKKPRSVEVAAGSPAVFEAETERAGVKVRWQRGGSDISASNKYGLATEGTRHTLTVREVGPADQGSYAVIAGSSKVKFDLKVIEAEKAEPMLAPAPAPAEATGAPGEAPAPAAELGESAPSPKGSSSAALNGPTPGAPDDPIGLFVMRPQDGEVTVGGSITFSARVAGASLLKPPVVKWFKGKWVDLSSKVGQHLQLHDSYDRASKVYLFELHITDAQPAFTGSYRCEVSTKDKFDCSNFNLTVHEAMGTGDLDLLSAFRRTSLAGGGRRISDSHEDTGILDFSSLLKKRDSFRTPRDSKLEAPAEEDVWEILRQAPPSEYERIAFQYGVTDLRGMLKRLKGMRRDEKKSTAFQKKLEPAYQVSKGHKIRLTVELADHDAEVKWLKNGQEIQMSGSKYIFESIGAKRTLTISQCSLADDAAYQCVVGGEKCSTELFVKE
Procedure: Peptides of Table 1 were tested in vitro to determine whether they compete for binding in the interaction between S2^126 and the C0-C2 protein. In these experiments, recombinant S2^126 and C0-C2 protein with 6X his-tags were bacterially expressed in BL21 E. coli and then purified through Talon© metal affinity columns. A solid phase binding assay (SPBA) was then performed, whereby 20 μM of the C0-C2 protein was adsorbed onto wells of a 96-well microtiter plate. Then, 20 μM of S2^126, along with increasing concentrations of selected experimental peptides from Table 1, ranging from 0-20 μM, were added.
The following procedure identified the competitive nature of the tested experimental peptides from Table 1. […] The Alexa Fluor 568© secondary antibody (anti-rabbit) would then bind to the primary antibody to give a relative positive fluorescence of 1.0. Conversely, if the experimental peptide successfully competed with the S2^126-C0-C2 binding. then the S2^126 site would not be available for binding by the primary antibody. Therefore, the secondary antibody would also fail to bind, leading to a decrease in the relative fluorescence below 1.0. As a result, for a non-competing peptide, the relative fluorescence approaches 1.0, as observed by S2^126-C0-C2 binding. For a competing peptide, a decay in the relative fluorescence is observed. This SPBA assay was used to screen peptides for efficacy in disrupting the interaction between S2^126-C0-C2.

[2] = tested on: skinned papillary fibers from mouse hearts; assay: Maximal force (Fmax) of skinned papillary muscle fibers versus calcium concentration; details: for effect on muscle / contractile function: summary statement
Procedure: The ability of the experimental peptides to increase or otherwise affect contractility in the heart muscle system was tested using skinned papillary fibers from mouse hearts. In this ex vivo experiment, cardiac papillary fibers from mouse hearts were isolated and skinned overnight in 1% Triton X-100 low calcium buffer supplemented with ATP, creatine phosphate, and magnesium chloride. Because skinned muscle fibers are devoid of sarcolemma, nuclei, and sarcoplasmic reticulum, the fibers can only contract if supplemented with calcium, magnesium chloride, ATP, and creatine phosphate. This assay allows for the opportunity to screen for compounds or molecules that affect the contractility of the muscle.
Skinned papillary muscle fibers were cycled through buffers containing a constant concentration magnesium chloride, ATP, creatine phosphate, but increasing concentrations of calcium. As the muscle fiber goes from buffers containing low concentrations of calcium to buffers containing high concentrations of calcium, the force developed increases with increasing concentration. Thus, plotting the force produced versus calcium concentration provides a sigmoidal curve, yielding the maximal force produced (Fmax) and the midpoint calcium concentration where the force produced is exactly half of the force produced at high calcium concentration. This is useful for measuring the calcium sensitivity (pCa50) of the muscle fibers.
The experiment and measurement of Fmax, pCa50, and ktr was performed for a muscle in the absence of the experimental peptide and then in the presence of 10 μM and 20 μM of the experimental peptide.

[3] = biological target: B1; assay: solid phase binding assay; peptide 0-20 µM against 20 µM S2^126 on adsorbed C0-C2
[4] = biological target: B2; assay: ITC; 300 µM S2^126 titrated into 20 µM C0-C2
[5] = biological target: cardiac myosin binding protein-C (cMyBP-C) in skinned papillary muscle fibers from mouse hearts (mouse, UniProt O70468 1-1270); assay: cell-based or functional assay
[6] = biological target: B1; assay: solid phase binding assay; competition with S2^126 on adsorbed C0-C2
[7] = biological target: B1; assay: ITC; 300 µM S2^126 titrated into 20 µM C0-C2
[8] = biological target: T2, C0-C2 protein (Homo sapiens, UniProt Q14896); assay: Isothermal titrating calorimetry (ITC); type: binding; details: 300 μM S2^126 titrated to 20 μM C0-C2 protein; read-out: dissociation constant (kd)
T2 construct: 6X His; made in house; host or cells: E. coli BL21
T2 sequence (Q14896 1-451 limits assumed): as above
Procedure: Isothermal titrating calorimetry (ITC) was used to validate and verify the results from the SPBA assays of Example 2. In ITC experiments, the heat of binding between two proteins is measured by titrating one protein with the other protein and then measuring the heat released or absorbed through a reference fluid with a constant temperature. By titrating 300 μM of S2^126 to 20 μM of C0-C2 protein, the stoichiometry (η) of 0.98 and dissociation constant (kd) of 4.7 μM for S2^126-C0-C2 binding were determined.
Using the above stoichiometry and dissociation constant values as controls, all of the experimental peptides were titrated at 300 μM with 20 μM of C0-C2 protein and compared with the above S2^126 control.

[9] = biological target: B1; assay: solid phase binding assay, competition: C0-C2 adsorbed on the plate, 20 µM S2^126 as competitor plus rising peptide; bound S2^126 detected with rabbit anti-S2^126 and Alexa Fluor 568 secondary antibody (Fluorescence Endpoint λ603, relative)
[10] = at 20 μM peptide, 20 μM S2^126, 20 μM C0-C2 adsorbed

“CDQLIKNKIQLEAKVKEMTERLEDEEEMNAELTAKK (listed as Mus musculus) [Amg 23005]” was tested, and the “ability to compete for S2^126-C0-C2 binding” value (shortened to “ability to compete”) [1] was “effectively compete”, the relative fluorescence [1, 10] was 0 and the “effect on muscle / contractile function” value [2] was “successfully improved muscle function”.

With “ETEKEMAMVSLLQAEERCDQDIDDLELTLAK [Amg 23050, scramble control peptide, reference compound]” the “ability to compete” value [1] was “unable to compete”.

“PLLKSAETEKEMANMKEEFGRVKDALEKSEARRKELEEKM (listed as Mus musculus) [Amg 23003]” was tested, and the “ability to compete” value [1] was “unable to compete”.

With “RKELEEKMVSLLQEKNDLQLQVQAEQDNLNDAEERCDQLIKNK (listed as Mus musculus) [Amg 23004]” the “ability to compete” value [1] was “unable to compete”.

For “VKEMTERLEDEEEMNAELTAKK (listed as Mus musculus) [Amg 27119]”, the “ability to compete” value [1] was “effectively compete”, the relative fluorescence ([1]; at peptide concentrations above 15 μM) was 0 and the “increase of maximal force produced by the fibers” value ([2]; peptide 10 μM and 20 μM versus control, particularly at higher calcium concentrations) was “about 30%”. For the same molecule, the “effect on muscle / contractile function” value [2] was “highly effective in improving contractile function”.

In the case of “VKEMTERLEDEEEMNAELTAKKRKLEDECSELKKDIDDLELTLAK (listed as Mus musculus) [Amg 23006]”, the “ability to compete” value [1] is reported as “effectively compete”, the relative fluorescence [1, 10] is reported as 0 and the “effect on muscle / contractile function” value [2] is reported as “successfully improved muscle function”.

Work on RKELEEKMVSLLQEKNDLQLQVQAEQDNLNDAEERCDQLIKNK [Amg 23004] yielded a relative fluorescence [3] of ~1 relative fluorescence.

In the case of PLLKSAETEKEMANMKEEFGRVKDALEKSEARRKELEEKM [Amg 23003], the relative fluorescence [3] is reported as ~1 relative fluorescence.

B1 was tested, and the Kd [4] was 4.7 µM.

In the case of CDQLIKNKIQLEAKVKEMTERLEDEEEMNAELTAKK [Amg 23005], the “maximal force produced by skinned papillary muscle fibers (Fmax)” value (“maximal force produced … (Fmax)” below) [5] is reported as 13%, the “rate of force redevelopment (ktr) at pCa 5.7” value (“rate of force redevelopment” for short) [5] is reported as 1.5 fold and the stoichiometry [6] is reported as 1.

For ETEKEMAMVSLLQAE [Amg 27120], the relative fluorescence [3] was ~1 relative fluorescence.

In the case of KLEDECSELKKDIDDLELTLAK [Amg 27118], the relative fluorescence [3] is reported as ~1 relative fluorescence.

ETEKEMAMVSLLQAEERCDQDIDDLELTLAK [Scramble control Amg 25030] was tested, and the relative fluorescence [3] was ~1 relative fluorescence.

With B2 the “stoichiometry (η)” value [7] was 0.98.

For B3, the Kd [8] was 4.7 µM.

For VKEMTERLEDEEEMNAELTAKK (also called myopeptide) [Amg 27119 (mouse myosin S2 subset)], the “maximal force produced … (Fmax)” value [5] was ~30%, the “rate of force redevelopment” value [5] was 2.5 fold and the “IC50 (read off the curve)” value [9] was ~6 µM.

In the case of DEEEMNAELTAKKR [Amg 27117], the relative fluorescence [3] is reported as ~1 relative fluorescence.

For VKEMTERLEDEEEMNAELTAKKRKLEDECSELKKDIDDLELTLAK [Amg 23006], the “maximal force produced … (Fmax)” value [5] was 13%, the “rate of force redevelopment” value [5] was 1.5 fold and the stoichiometry [6] was 1.
